The target of this test is Mature human IL-6 (human) (UniProt P05231). As to the kind of experiment: cell-based or functional assay.

This is an account of results in patent US20150197568A1.

Residue numbers refer to the chain shown, from its start.

Mature human IL-6 (human), sequence (P05231 30-212): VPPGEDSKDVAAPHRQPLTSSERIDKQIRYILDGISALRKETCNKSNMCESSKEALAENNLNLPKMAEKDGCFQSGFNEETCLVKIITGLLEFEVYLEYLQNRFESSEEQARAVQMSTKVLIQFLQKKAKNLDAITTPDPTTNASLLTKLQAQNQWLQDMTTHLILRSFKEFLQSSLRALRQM

B1: CNTO-328 (antibody, INN chains, looked up, V domains shown)
VH: EVQLVESGGKLLKPGGSLKLSCAASGFTFSSFAMSWFRQSPEKRLEWVAEISSGGSYTYYPDTVTGRFTISRDNAKNTLYLEMSSLRSEDTAMYYCARGLWGYYALDYWGQGTSVTVSS
VL: QIVLIQSPAIMSASPGEKVTMTCSASSSVSYMYWYQQKPGSSPRLLIYDTSNLASGVPVRFSGSGSGTSYSLTISRMEAEDAATYYCQQWSGYPYTFGGGTKLEIK
For B1, the IC50, IL-6 induced TF-1 cell proliferation assay turned out to be 0.101 nM; the IC50, TF-1 cell proliferation assay is 0.074 nM; the IC50, endogenous IL-6 induced synovial fibroblast VEGF release assay was determined as 1.31 nM.

B2: Antibody 14 scFv (scFv, part only; not given: scFv linker, part only)
scFv, part: EVQLVQSGGGLIQPGGSLRLSCAASGFTISSNYMIWVRQAPGKGLEWVSDLYYYAGDTYYADSVKGRFTMSRDISKNTVYLQMNSLRAEDTGVYYCARWADDHNYPHIDVWGRGTLVTVSSDIVMTQSPSTLSASVGDRVTITCRASQGISSWLAWYQQKPGRAPKVLIYKASTLESGVPSRFSGSGSGTDFTLTISSLQPEDFATYYCAAHYAAPWTFGQGTKLEIKR
B2 showed an IC50, TF-1 cell proliferation assay of 0.448 nM.

B3: Antibody 22 scFv (scFv, part only; not given: scFv linker, part only)
scFv, part: B2 scFv, part with Y105N, P106T, H107Y
In turn, B3 had an IC50, TF-1 cell proliferation assay of 0.041 nM.

B4: Antibody 8 scFv (scFv, part only; not given: scFv linker, part only)
scFv, part: EVQLVQSGGGLIQPGGSLRLSCAASGFTISSNYMIWVRQAPGKGLEWVSDLYYYAGDTYYADSVKGRFTMSRDISKNTVYLQMNSLRAEDTGVYYCARWADDHPRYIDHWGRGTLVTVSSDIVMTQSPSTLSASVGDRVTITCRASQGISSWLAWYQQKPGRAPKVLIYKASTLESGVPSRFSGSGSGTDFTLTISSLQPEDFATYYCQQSWLGGSFGQGTKLEIKR
B4 registered an IC50, TF-1 cell proliferation assay of 0.419 nM.

B5: Antibody 21 scFv (scFv, part only; not given: scFv linker, part only)
scFv, part: B4 scFv, part with R105S, Y106H, H109V
The molecule B5 registered an IC50, TF-1 cell proliferation assay of 0.042 nM.
